Reference: patent US5393869A, “Parathyroid hormone derivatives” (Takeda Chemical Industries, Ltd., priority 1990, dated 1995)
Starred links: 1 amine or outer side, 2 acyl side, 3 side chain; linkers in the order of their positions; H or OH if unused. Non-standard residues stand in square brackets, D forms with d. Residues, ends and D or L forms follow the SMILES beside them. X1 = O=C([C@H](Cc1c(C2SCCS2)[nH]c2ccccc12)N[*:1])[*:2]

Experiments:
[1] = target: PTH receptor on MC3T3-EI cells (mouse cranial bone-derived osteoblast-like cell strain) (mouse) (UniProt P41593)
PTH receptor = target: T1, PTH receptor (Mus musculus, UniProt P41593); assay: cAMP production by PTH (1-34) analogues in MC3T3-EI osteoblast-like cells; format: cell-based; conditions: cAMP production, 0.01-100 nM analogue, room temperature 30 minutes, hPTH(1-34) = 1.00
T1 construct: a mouse cranial bone-derived osteoblast-like cell strain, MC3T3-EI cells, cultivated on a 96-well multiplate; endogenous in cells; host or cells: MC3T3-E1 mouse osteoblast-like cells
T1 sequence (P41593 27-591): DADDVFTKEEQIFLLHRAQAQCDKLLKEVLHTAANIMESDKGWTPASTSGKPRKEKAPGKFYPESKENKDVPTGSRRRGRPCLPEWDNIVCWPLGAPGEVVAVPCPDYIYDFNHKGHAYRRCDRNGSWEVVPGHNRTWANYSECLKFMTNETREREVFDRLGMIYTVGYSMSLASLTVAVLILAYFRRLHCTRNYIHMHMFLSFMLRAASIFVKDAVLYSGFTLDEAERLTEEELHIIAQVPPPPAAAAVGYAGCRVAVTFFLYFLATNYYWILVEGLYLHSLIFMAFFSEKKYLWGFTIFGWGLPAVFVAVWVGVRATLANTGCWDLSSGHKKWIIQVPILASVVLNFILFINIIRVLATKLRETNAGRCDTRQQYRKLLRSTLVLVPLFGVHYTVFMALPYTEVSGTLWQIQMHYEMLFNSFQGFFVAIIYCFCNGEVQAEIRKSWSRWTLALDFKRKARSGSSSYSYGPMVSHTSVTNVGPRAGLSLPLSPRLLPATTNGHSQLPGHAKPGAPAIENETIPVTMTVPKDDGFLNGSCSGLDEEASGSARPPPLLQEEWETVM
Experimental: The biological activity of the peptide analogues was evaluated by a modified version of the method reported by Shigeno et al. in The Journal of Biological Chemistry 263, 18369-18377 (1988). A culture solution (Hank's solution, containing 20 mM N-2-hydroxyethylpiperazine-N'-2-ethanesulfonic acid (HEPES), 0.1% bovine serum albumin and 0.5 mM isobutylmethyl-xanthine) containing 0.01, 0.1, 1, 10 or 100 nM analogue was added in an amount of 100 μto a mouse cranial bone-derived osteoblast-like cell strain, MC3T3-EI cells, cultivated on a 96-well multiplate (Nunclon, Nunc), followed by reaction at room temperature for 30 minutes. After addition of 100 μof 0.2N hydrochloric acid, the mixture was immersed in boiling water for 2.5 minutes, and cyclic adenosine monophosphate (cAMP) produced by a PTH receptor was extracted from the cells. The total cAMP in the culture solution and the cells was assayed using a commercial radioimmunoassay kit (cyclic AMP [^125 I] kit "Du Pont-Daiichi", Daiichi Kagaku Yakuhin).

cAMP production in MC3T3-EI cells, relative activity to hPTH(1-34) (relative activity to hPTH(1-34)) [1] | Biological Activity (Represented by Relative Activity to hPTH(1-34)) (PTH receptor) | Compound
0.9 |  | (3-(2-naphthyl)-D-Ala^12)hPTH(1-34)NH2 (from UniProt P01270) (peptide)
0.4 |  | (Leu^18)hPTH(1-34) (from UniProt P01270) (peptide)
1.7 |  | (3-(2-naphthyl)-Ala^11)hPTH(1-34)NH2 (from UniProt P01270) (peptide)
0.8 |  | (D-Ser^12)hPTH(1-34)NH2 (from UniProt P01270) (peptide)
0.5 |  | (D-Leu^12)hPTH(1-34)NH2 (from UniProt P01270) (peptide)
1.3 |  | (Phe^11)hPTH(1-34)NH2 (from UniProt P01270) (peptide)
1.2 |  | (Leu^27)hPTH(1-34) (from UniProt P01270) (peptide)
1 |  | (His^25)hPTH(1-34) (from UniProt P01270) (peptide)
1.1 |  | (Phe^11)hPTH(1-34) (from UniProt P01270) (peptide)
0.9 |  | (His^26)hPTH(1-34)NH2 (from UniProt P01270) (peptide)
0.8 |  | (Ser^11)hPTH(1-34)NH2 (from UniProt P01270) (peptide)
1.1 |  | (Lys^11)hPTH(1-34)NH2 (from UniProt P01270) (peptide)
1.7 |  | (Aib^1)hPTH(1-34) (from UniProt P01270) (peptide)
0.9 |  | (Leu^8, Phe^11,Leu^18)hPTH(1-34)NH2 (from UniProt P01270) (peptide)
0.5 |  | (Leu^8)hPTH(1-34)NH2 (from UniProt P01270) (peptide)
2.5 |  | (Gln^27)hPTH(1-34) (from UniProt P01270) (peptide)
0.9 |  | (Arg^19,21)hPTH(1-34)NH2 (from UniProt P01270) (peptide)
1.7 |  | (Arg^19,21,2-(1,3-dithiolan-2-yl)-Trp^23)hPTH(1-34)NH2 (from UniProt P01270) (peptide)
 | 1.7 | CC[C@H](C)[C@H](NC(=O)[C@H](CCC(=O)O)NC(=O)[C@H](CO)NC(=O)[C@@H](NC(=O)[C@@H](N)CO)C(C)C)C(=O)N[C@@H](CCC(N)=O)C(=O)N[C@@H](CC(C)C)C(=O)N[C@@H](CCSC)C(=O)N[C@@H](Cc1c[nH]cn1)C(=O)N[C@@H](CC(N)=O)C(=O)N[C@@H](CC(C)C)C(=O)NCC(=O)N[C@@H](CCCCN)C(=O)N[C@@H](Cc1c[nH]cn1)C(=O)N[C@@H](CC(C)C)C(=O)N[C@@H](CC(N)=O)C(=O)N[C@@H](CO)C(=O)N[C@@H](CCSC)C(=O)N[C@@H](CCCNC(=N)N)C(=O)N[C@@H](CCCNC(=N)N)C(=O)N[C@@H](CCCNC(=N)N)C(=O)N[C@@H](CCC(=O)O)C(=O)N[C@@H](Cc1c(C2SCCS2)[nH]c2ccccc12)C(=O)N[C@@H](CC(C)C)C(=O)N[C@@H](CCCNC(=N)N)C(=O)N[C@@H](CCCCN)C(=O)N[C@@H](CCCCN)C(=O)N[C@@H](CC(C)C)C(=O)N[C@@H](CCC(N)=O)C(=O)N[C@@H](CC(=O)O)C(=O)N[C@H](C(=O)N[C@@H](Cc1c[nH]cn1)C(=O)N[C@@H](CC(N)=O)C(=O)N[C@@H](Cc1ccccc1)C(N)=O)C(C)C [(Arg^19,21,2-(1,3-dithiolan-2-yl)-Trp^23)hPTH(1-34)NH2] (H-SVSEIQLMHNLGKHLNSMRRRE[X1]LRKKLQDVHNF-NH2)
 | 1.2 | CC[C@H](C)[C@H](NC(=O)[C@H](CCC(=O)O)NC(=O)[C@H](CO)NC(=O)[C@@H](NC(=O)[C@@H](N)CO)C(C)C)C(=O)N[C@@H](CCC(N)=O)C(=O)N[C@@H](CC(C)C)C(=O)N[C@@H](CCSC)C(=O)N[C@@H](Cc1c[nH]cn1)C(=O)N[C@@H](CC(N)=O)C(=O)N[C@@H](CC(C)C)C(=O)NCC(=O)N[C@@H](CCCCN)C(=O)N[C@@H](Cc1c[nH]cn1)C(=O)N[C@@H](CC(C)C)C(=O)N[C@@H](CC(N)=O)C(=O)N[C@@H](CO)C(=O)N[C@@H](CCSC)C(=O)N[C@@H](CCC(=O)O)C(=O)N[C@@H](CCCNC(=N)N)C(=O)N[C@H](C(=O)N[C@@H](CCC(=O)O)C(=O)N[C@@H](Cc1c[nH]c2ccccc12)C(=O)N[C@@H](CC(C)C)C(=O)N[C@@H](CCCNC(=N)N)C(=O)N[C@@H](CCCCN)C(=O)N[C@@H](CC(C)C)C(=O)N[C@@H](CC(C)C)C(=O)N[C@@H](CCC(N)=O)C(=O)N[C@@H](CC(=O)O)C(=O)N[C@H](C(=O)N[C@@H](Cc1c[nH]cn1)C(=O)N[C@@H](CC(N)=O)C(=O)N[C@@H](Cc1ccccc1)C(=O)O)C(C)C)C(C)C [[Leu^27] hPTH (1-34), (Leu^27)hPTH(1-34)]
 | 1.7 | CC[C@H](C)[C@H](NC(=O)[C@H](CCC(=O)O)NC(=O)[C@H](CO)NC(=O)[C@@H](NC(=O)C(C)(C)N)C(C)C)C(=O)N[C@@H](CCC(N)=O)C(=O)N[C@@H](CC(C)C)C(=O)N[C@@H](CCSC)C(=O)N[C@@H](Cc1c[nH]cn1)C(=O)N[C@@H](CC(N)=O)C(=O)N[C@@H](CC(C)C)C(=O)NCC(=O)N[C@@H](CCCCN)C(=O)N[C@@H](Cc1c[nH]cn1)C(=O)N[C@@H](CC(C)C)C(=O)N[C@@H](CC(N)=O)C(=O)N[C@@H](CO)C(=O)N[C@@H](CCSC)C(=O)N[C@@H](CCC(=O)O)C(=O)N[C@@H](CCCNC(=N)N)C(=O)N[C@H](C(=O)N[C@@H](CCC(=O)O)C(=O)N[C@@H](Cc1c[nH]c2ccccc12)C(=O)N[C@@H](CC(C)C)C(=O)N[C@@H](CCCNC(=N)N)C(=O)N[C@@H](CCCCN)C(=O)N[C@@H](CCCCN)C(=O)N[C@@H](CC(C)C)C(=O)N[C@@H](CCC(N)=O)C(=O)N[C@@H](CC(=O)O)C(=O)N[C@H](C(=O)N[C@@H](Cc1c[nH]cn1)C(=O)N[C@@H](CC(N)=O)C(=O)N[C@@H](Cc1ccccc1)C(=O)O)C(C)C)C(C)C [[Aib^1] hPTH (1-34), (Aib^1)hPTH(1-34)]
